From patent US20080227698A1, “OLIGOPEPTIDES FOR TREATMENT OF OSTEOPOROSIS AND OTHER BONE DISEASES AND METHODS THEREOF” (Washington University, priority 2005, published 2008)

Columns and labels:
LRP6 [1] = molecular target: T1, LRP6 (Homo sapiens, UniProt O75581); test: ^125I-RAP binding to LRP6-transduced HT1080 cells and control cells; set-up: plasmid pCS-Myc-hLRP6 containing the full-length human LRP6 cDNA; HA; expressed in transfected cells; host or cells: human HT1080 cells, stably transduced (pLNCX2 retroviral vector)
T1 sequence (O75581 20-1613): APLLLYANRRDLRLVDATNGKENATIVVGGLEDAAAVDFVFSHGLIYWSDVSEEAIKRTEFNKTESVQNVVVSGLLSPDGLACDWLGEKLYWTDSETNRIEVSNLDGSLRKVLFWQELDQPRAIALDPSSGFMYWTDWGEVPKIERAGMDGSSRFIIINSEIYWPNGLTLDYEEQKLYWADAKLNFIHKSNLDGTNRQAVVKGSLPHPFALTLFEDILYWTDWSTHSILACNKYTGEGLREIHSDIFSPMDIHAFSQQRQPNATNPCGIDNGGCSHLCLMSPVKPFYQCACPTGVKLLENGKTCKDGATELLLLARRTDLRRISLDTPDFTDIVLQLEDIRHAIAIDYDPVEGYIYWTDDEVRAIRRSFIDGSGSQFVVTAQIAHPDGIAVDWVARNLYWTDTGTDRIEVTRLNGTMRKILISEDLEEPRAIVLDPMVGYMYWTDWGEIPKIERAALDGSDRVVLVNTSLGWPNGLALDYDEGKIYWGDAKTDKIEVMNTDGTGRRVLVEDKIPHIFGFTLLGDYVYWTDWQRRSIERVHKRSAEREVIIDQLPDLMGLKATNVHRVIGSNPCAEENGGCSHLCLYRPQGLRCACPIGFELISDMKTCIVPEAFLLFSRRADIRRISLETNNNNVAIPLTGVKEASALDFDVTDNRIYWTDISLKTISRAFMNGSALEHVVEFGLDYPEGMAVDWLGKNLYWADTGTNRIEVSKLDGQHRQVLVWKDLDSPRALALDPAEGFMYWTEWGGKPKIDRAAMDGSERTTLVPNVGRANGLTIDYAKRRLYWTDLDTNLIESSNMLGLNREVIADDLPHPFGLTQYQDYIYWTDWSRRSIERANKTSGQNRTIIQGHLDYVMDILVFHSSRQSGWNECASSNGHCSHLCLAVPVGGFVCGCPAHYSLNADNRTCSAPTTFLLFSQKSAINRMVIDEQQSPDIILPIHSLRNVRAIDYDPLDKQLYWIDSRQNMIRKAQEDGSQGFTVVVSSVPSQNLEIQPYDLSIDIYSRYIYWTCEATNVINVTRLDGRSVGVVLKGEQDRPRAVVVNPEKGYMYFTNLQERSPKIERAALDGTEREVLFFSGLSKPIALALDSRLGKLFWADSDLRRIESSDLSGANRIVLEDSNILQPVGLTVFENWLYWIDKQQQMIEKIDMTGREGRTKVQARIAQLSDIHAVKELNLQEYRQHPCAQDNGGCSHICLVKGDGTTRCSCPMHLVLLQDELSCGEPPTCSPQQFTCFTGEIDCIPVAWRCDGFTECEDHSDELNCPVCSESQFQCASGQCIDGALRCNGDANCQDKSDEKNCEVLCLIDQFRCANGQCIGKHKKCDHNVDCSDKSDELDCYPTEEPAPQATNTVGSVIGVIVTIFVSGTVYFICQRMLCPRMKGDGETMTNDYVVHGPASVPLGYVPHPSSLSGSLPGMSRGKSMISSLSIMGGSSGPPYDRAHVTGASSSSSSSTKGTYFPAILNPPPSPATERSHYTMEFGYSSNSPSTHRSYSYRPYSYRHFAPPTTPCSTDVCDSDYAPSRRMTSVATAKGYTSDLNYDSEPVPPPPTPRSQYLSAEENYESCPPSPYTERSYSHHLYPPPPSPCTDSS
Protocol: (§1) Cells (2×10^5) were seeded into 12-well dishes 1 day prior to assay. Ligand-binding buffer (minimal Eagle's medium containing 0.6% BSA with a different concentration of radioligand, 0.6 ml/well) was added to cell monolayers, in the absence or the presence of 500 nM unlabeled RAP or 500 nM unlabeled Mesd, followed with incubation for 0-4 hours at 4° C. Thereafter, overlying buffer containing unbound ligand was removed, and cell monolayers were washed and lysed in low-SDS lysis buffer (62.5 mM Tris-HCl pH 6.8, 0.2% SDS, 10% v/glycerol) and counted.
Receptor-associated protein (RAP) binds with high affinity to LRP, megalin, VLDLR and apoER2, and with a lower affinity to the LDLR (Bu, G., Int. Rev. Cytol. 209, 79-116. 2001). To determine whether RAP and Mesd bind to identical, overlapping, or different sites on the receptors, binding and competition analysis of these two chaperones with HT1080 cells stably expressing LRP6 was performed.
In FIG. 8A, binding of ^125I-RAP (5 nM) to LRP6-transduced HT1080 cells and the control cells was carried out for 4 hours at 4° C. in the absence (total) or presence of 500 nM RAP, or 500 nM Mesd. In FIG. 8B, binding of ^125I-Mesd (5 nM) to LRP6-transduced HT1080 cells was carried out for 2 hours at 4° C. in the absence (total) or presence of various concentrations of RAP or 500 nM Mesd. (C) LRP6-mediated ^125I-Mesd (5 nM) degradation was carried out for 4 hours at 37° C. in the absence or presence of 500 nM Mesd or 500 nM RAP. Values are the means of triple determinations with the s.d. indicated by error bars.

LRP6 [2] = test: ^125I-Mesd cell surface ligand binding to LRP6-transduced HT1080 cells; set-up: species or system human; conditions: HT1080 cells transduced with vector alone, ^125I-Mesd 5 nM, 4° C.
Protocol: (§2) To examine whether Mesd binds with high affinity to […] at the cell surface, cell surface ligand binding experiments were performed with cells stably transduced with LRP6 cDNA. Human HT1080 cells, which express undetectable levels of LRP6, were transduced with a viral vector alone (pLNCX2) or with vector containing LRP6 cDNA (Li, Y., Oncogene 23: 9129-9135, 2004) and used for ^125I-Mesd binding (FIG. 1A). ^125I-Mesd (5 nM) reached maximal binding after 2 hours incubation at 4° C. with LRP6-expressing HT1080 cells (FIG. 1A).
(§3) (A) Time course of ^125I-Mesd (5 nM) binding to LRP6-transduced HT1080 cells and the control cells. Assay was carried out for the indicated periods at 4° C. in the absence (total) or presence of 500 nM Mesd (non-specific). (B) Saturation binding of ^125I-Mesd to LRP6-transduced HT1080 cells and the control cells. Assay was carried out at indicated concentrations for 3 hours at 4° C. in the absence (total) or presence (non-specific) of 500 nM Mesd. (C) Scatchard plots of data in B. All values are the average of triple determinations with the s.d. indicated by error bars.
Cells (2×10^5) were seeded into 12-well dishes 1 day prior to assay. […] Thereafter, overlying buffer containing unbound ligand was removed, and cell monolayers were washed and lysed in low-SDS lysis buffer (62.5 mM Tris-HCl pH 6.8, 0.2% SDS, 10% v/glycerol) and counted.

LRP6 [3] = molecular target: T1, LRP6; test: as above; set-up: plasmid pCS-Myc-hLRP6 containing the full-length human LRP6 cDNA; HA; expressed in transfected cells; host or cells: human HT1080 cells, stably transduced (pLNCX2 retroviral vector)
Protocol: as §2, §3, §1

Effect of excess unlabeled competitor on ^125I-RAP binding to control cells (LRP6 [1]; 500 nM competitor, control cells expressing vector alone, 4° C.): not
Effect on the LRP6-dependent increase of ^125I-RAP binding (LRP6 [1]; excess unlabeled Mesd (500 nM), 4 hours at 4° C.): abolished
Inhibition of ^125I-Mesd binding to cell surface LRP6 (LRP6 [3]; 500 nM unlabeled competitor, ^125I-Mesd 5 nM, 2 hours at 4° C.): > 90%
Concentration at which Mesd specific binding saturates (LRP6 [3]; LRP6-transduced HT1080 cells, 3 hours at 4° C.): > 6.4 nM
^125I-Mesd binding level (LRP6 [3]; ^125I-Mesd 5 nM, 4 hours at 4° C., LRP6-transduced HT1080 cells): 1320 fmoles/mg cell protein
Effect of excess unlabeled Mesd on ^125I-Mesd binding (LRP6 [3]; unlabeled Mesd 500 nM, ^125I-Mesd 5 nM, 4° C.): completely eliminated this binding
B1: Mesd: recombinant wild-type mouse Mesd, polyhistidine tail at the N-terminus, lacks the signal peptide, expressed in E. coli (protein)
chain: ADTPGEATPPPRKKKDIRDYNDADMARLLEQWEKDDDIEEGDLPEHKRPSAPIDFSKLDPGKPESILKMTKKGKTLMMFVTVSGNPTEKETEEITSLWQGSLFNANYDVQRFIVGSDRAIFMLRDGSYAWEIKDFLVSQDRCAEVTLEGQMYPGKGGGSKEKNKTKPEKAKKKEGDRKPRASKEDNRAGSRREDL
modifications: left off: small tags and cut ends
notes: recombinant wild-type mouse Mesd, polyhistidine tail at the N-terminus, lacks the signal peptide, expressed in E. coli
^125I-Mesd binding to control cells (pLNCX2) (LRP6 [2]): No significant ^125I-Mesd binding
